Test system: O=C1CCCCC1
Experiment: purified protein
Conditions: apparent, 0.3 mM NADPH, 50 mM sodium phosphate pH 7.7, 25 °C

In the case of “Ac CHMO (cyclohexanone monooxygenase) (Acinetobacter johnsonii)”, the Km is reported as 4.09 ± 1.81 µM.
